Test results as given in PMC10465942, “N-acetylmuramic acid recognition by MurK kinase from the MurNAc auxotrophic oral pathogen Tannerella forsythia” (The Journal of Biological Chemistry, 2023).

Legend:
[1] = target: K1058, paralogous MurNAc kinase of Tannerella forsythia (Tannerella forsythia); experiment: SEC; SD200 16/60 column, 4 °C; MurK in 200 mM NaCl, 50 mM MES, pH 6; K1058 in 750 mM NaCl, 25 mM Tris-HCl, pH 8.5; apparent mass about 60 kDa against 32.4 and 32.3 kDa for the monomers
[2] = target: Tannerella forsythia ATP-dependent murein sugar kinase (MurK) (Tannerella forsythia); experiment: as above

stoichiometry N [1]	stoichiometry N [2]	Substance
2	–	K1058, paralogous MurNAc kinase of Tannerella forsythia (enzyme)
–	2	Tannerella forsythia ATP-dependent murein sugar kinase (MurK) (enzyme)
